What all share (conditions): protein: recombinant; label: 32P 5' end; blunt
Data set [1] concerns the target T1, GST-Pax6 paired domain (PD) (UniProt P63015 4-130). Briefly: EMSA; EMSA: 2 ug protein, 20000 cpm 32P probe, 1 ug poly(dI-dC), 5% TBE polyacrylamide gel; buffer, salt, pH and temperature not given (as in ref. 35).
Data set [2] has as its target GST-Pax6(5a) paired domain (PD5a) (UniProt P63015-2 4-144). The data set is described as above.
The target in data set [3] is T1, GST-Pax6 paired domain (PD). Briefly: EMSA; stronger than WT; EMSA: 2 ug protein, 20000 cpm 32P probe, 1 ug poly(dI-dC), 5% TBE polyacrylamide gel; buffer, salt, pH and temperature not given (as in ref. 35).

T1 sequence (P63015 4-130): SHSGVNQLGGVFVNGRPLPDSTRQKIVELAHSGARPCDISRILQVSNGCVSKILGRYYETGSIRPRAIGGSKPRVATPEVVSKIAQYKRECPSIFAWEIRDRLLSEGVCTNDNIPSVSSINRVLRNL
GST-Pax6(5a) paired domain (PD5a), sequence (P63015 other isoform, or with tags, fused parts or gaps): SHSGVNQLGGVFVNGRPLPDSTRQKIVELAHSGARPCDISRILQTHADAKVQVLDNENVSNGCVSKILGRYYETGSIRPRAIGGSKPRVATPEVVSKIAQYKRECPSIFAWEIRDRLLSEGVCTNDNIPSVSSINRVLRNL

B1: mDkk3 BSAP WT (dsDNA)
DNA 1: CATCTGGGGGCGGGCAGAGCAGCGGGGCGGGGCGGGACGGGCAAGAGGGG
DNA 2: CCCCTCTTGCCCGTCCCGCCCCGCCCCGCTGCTCTGCCCGCCCCCAGATG
Turning to B1, the binding result in data set [1] is recorded as “binds”; in data set [2], “no binding”.

B2: mDkk3 5aCON OPT (dsDNA)
DNA 1: GGAGGAAGCTATGCTCAGTGAGATGTTCATTGAGGTGGAGGAG
DNA 2: CTCCTCCACCTCAATGAACATCTCACTGAGCATAGCTTCCTCC
For the molecule B2, the binding result in data set [3] is listed as “binds”.

B3: mDkk3 5aCON MUT (dsDNA)
DNA 1: GGAGGAAGCTACCCTGTATCCGATTTTTCGAGAGGTGGAGGAG
DNA 2: CTCCTCCACCTCTCGAAAAATCGGATACAGGGTAGCTTCCTCC
For the molecule B3, the binding result in data set [3] is on record as “binds”.

The values are drawn from PMC4100929, “Pax6 Regulates the Expression of Dkk3 in Murine and Human Cell Lines, and Altered Responses to Wnt Signaling Are Shown in FlpIn-3T3 Cells Stably Expressing Either the Pax6 or the Pax6(5a) Isoform”.
